Laboratory results: publication PMC8138981

Legend:
[1] = biological target: mTFP1-AB-mcpVenus folding biosensor, WT (human)
[2] = biological target: mTFP1-AB-mcpVenus folding biosensor, W344R (human)
[3] = biological target: YFP-tagged Kv7.2 WT channel (human) (UniProt O43526); assay: FRET or BRET; living HEK293T cells; mCFP-CaM (donor) and YFP (mCitrine)-tagged Kv7.2, ABCD or AB (acceptor), transfection ratio 1:5; spectral unmixing of confocal images; room temperature, buffer with 2 mM CaCl2, pH 7.4
YFP-tagged Kv7.2 WT channel (human), sequence (O43526 other isoform, or with tags, fused parts or gaps): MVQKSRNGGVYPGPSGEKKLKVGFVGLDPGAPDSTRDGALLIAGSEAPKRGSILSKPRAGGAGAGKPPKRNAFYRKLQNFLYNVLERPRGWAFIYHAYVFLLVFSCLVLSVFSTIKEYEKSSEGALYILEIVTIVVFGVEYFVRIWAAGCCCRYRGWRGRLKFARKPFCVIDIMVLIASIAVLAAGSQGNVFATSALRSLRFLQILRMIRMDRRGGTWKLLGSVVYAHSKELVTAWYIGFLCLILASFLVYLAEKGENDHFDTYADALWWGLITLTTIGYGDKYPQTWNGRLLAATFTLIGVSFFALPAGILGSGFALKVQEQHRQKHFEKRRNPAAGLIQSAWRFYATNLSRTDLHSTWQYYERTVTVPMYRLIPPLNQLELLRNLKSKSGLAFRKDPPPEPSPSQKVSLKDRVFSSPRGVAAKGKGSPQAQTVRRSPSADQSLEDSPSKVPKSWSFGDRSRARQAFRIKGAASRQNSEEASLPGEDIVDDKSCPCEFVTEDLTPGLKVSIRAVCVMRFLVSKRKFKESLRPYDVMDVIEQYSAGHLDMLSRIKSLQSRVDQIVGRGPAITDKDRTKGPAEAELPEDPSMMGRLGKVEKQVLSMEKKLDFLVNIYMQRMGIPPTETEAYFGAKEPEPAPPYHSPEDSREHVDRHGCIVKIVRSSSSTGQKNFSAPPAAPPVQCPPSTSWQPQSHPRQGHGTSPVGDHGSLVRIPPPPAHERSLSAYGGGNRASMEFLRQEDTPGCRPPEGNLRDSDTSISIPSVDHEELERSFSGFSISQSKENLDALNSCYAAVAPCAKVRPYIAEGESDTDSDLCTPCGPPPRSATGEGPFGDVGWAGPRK

mTFP1-AB-mcpVenus folding biosensor, WT (human), sequence (O43526 whole entry): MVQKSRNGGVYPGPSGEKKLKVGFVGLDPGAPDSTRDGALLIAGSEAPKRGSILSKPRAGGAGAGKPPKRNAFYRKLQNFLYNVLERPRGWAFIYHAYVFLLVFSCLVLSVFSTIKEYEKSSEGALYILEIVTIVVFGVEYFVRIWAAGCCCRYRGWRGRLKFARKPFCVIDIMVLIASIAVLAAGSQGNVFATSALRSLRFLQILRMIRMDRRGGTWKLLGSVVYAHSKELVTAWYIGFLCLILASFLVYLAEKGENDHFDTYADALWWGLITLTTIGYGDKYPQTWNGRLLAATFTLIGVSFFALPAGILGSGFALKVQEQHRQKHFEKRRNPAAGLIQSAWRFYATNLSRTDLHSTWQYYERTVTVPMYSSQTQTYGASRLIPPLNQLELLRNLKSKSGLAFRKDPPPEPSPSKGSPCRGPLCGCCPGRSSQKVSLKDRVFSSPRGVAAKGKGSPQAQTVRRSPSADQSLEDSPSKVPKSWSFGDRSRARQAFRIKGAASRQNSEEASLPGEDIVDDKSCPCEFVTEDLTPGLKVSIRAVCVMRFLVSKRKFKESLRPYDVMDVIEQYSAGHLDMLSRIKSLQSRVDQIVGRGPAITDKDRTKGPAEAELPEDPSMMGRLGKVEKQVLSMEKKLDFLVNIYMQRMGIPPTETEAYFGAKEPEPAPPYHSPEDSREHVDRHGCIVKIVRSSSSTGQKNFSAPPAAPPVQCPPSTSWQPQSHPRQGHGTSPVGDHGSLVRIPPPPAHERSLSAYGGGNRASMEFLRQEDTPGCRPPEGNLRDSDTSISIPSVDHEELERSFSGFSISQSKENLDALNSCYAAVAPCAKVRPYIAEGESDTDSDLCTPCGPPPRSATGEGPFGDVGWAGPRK

## Calmodulin (from UniProt P0DP23 1-149) (natural protein)
[1]
  FRET efficiency (ratio of peak emission at 528 and 492 nm) of the folding sensor co-expressed with CaM: 0.4
[2]
  FRET efficiency of the soluble fraction of the sensor co-expressed with CaM in E. coli, relative to the WT biosensor: 33%

## Calmodulin with an N-terminus mCFP-tag (from UniProt P0DP23 1-149) (natural protein)
[3]
  FRET efficiency: 0.18
